The source of these data is US20240261333A1 (published 2024).

What all share (test): co-IP, anti-FLAG, lysate of cells with N-FLAG B3GNT2; mass spectrometry
Test [1] addresses T1, ATXN2 (human, UniProt Q99700 1-1313).
T1 construct: also called NP_002964.3
The method, then: (§1) Cells were plated in 10-cm cell culture dishes and grown to 60-80% confluency. For each condition, two biological replicates were harvested for co-IP. Cells were washed with PBS and 4 mL of lysis buffer (20 mM HEPES, 1% Triton X-100, 150 mM NaCl, 1 mM EDTA, and 10% glycerol) containing protease inhibitor cocktail was added. Cells were scraped and lysate was incubated at 4° C. under rotary agitation for 1 h. Lysate was centrifuged at 14,000×g for 10 min at 4° C. Supernatant was transferred to a new tube and an aliquot was taken as the input. […] For Western blots, 10 μg/mL Chicken Anti-FLAG (Aves labs ET-DY100) and IgY control (R&D Systems AB-101-C) antibodies were biotinylated (Thermo Fisher Scientific 90407) and added to the respective conditions. Lysates with antibodies were incubated at 4° C. under rotary agitation overnight. For each mL of lysate, 50 μL of Pierce Protein A/G Magnetic Beads (Mass spectrometry; Thermo Fisher Scientific 88803) or Pierce Streptavidin Magnetic Beads (Western blot; Thermo Fisher Scientific 88817) was washed twice with lysis buffer. Lysates with antibodies were added to the beads and incubated at 4° C. under rotary agitation for 4 h. Beads were washed with lysis buffer 3 times and resuspended in lysis buffer for storage.
(§2) Magnetic beads were resuspended in 100 mM Tris pH 7.8, reduced, alkylated and digested with trypsin at 37° ° C. overnight. This solution was subjected to solid phase extraction to concentrate the peptides and remove unwanted reagents followed by injection onto a Shimadzu HPLC with fraction collector. Eight fractions were collected and after concentration were injected on a Waters NanoAcquity HPLC equipped with a self-packed Aeris 3 μm C18 analytical column 0.075 mm by 20 cm, (Phenomenex). Peptides were eluted using standard reverse-phase gradients. The effluent from the column was analyzed using a Thermo Orbitrap Elite mass spectrometer (nanospray configuration) operated in a data dependent manner for 54 minutes. The resulting fragmentation spectra were correlated against the known database using Proteome Discover 1.4 (Thermo Fisher Scientific).

The target of test [2] is T2, UBAP2L (human, UniProt Q14157 1-1087).
T2 construct: also called NP_055662.3 (+3)
T2 sequence (looked up): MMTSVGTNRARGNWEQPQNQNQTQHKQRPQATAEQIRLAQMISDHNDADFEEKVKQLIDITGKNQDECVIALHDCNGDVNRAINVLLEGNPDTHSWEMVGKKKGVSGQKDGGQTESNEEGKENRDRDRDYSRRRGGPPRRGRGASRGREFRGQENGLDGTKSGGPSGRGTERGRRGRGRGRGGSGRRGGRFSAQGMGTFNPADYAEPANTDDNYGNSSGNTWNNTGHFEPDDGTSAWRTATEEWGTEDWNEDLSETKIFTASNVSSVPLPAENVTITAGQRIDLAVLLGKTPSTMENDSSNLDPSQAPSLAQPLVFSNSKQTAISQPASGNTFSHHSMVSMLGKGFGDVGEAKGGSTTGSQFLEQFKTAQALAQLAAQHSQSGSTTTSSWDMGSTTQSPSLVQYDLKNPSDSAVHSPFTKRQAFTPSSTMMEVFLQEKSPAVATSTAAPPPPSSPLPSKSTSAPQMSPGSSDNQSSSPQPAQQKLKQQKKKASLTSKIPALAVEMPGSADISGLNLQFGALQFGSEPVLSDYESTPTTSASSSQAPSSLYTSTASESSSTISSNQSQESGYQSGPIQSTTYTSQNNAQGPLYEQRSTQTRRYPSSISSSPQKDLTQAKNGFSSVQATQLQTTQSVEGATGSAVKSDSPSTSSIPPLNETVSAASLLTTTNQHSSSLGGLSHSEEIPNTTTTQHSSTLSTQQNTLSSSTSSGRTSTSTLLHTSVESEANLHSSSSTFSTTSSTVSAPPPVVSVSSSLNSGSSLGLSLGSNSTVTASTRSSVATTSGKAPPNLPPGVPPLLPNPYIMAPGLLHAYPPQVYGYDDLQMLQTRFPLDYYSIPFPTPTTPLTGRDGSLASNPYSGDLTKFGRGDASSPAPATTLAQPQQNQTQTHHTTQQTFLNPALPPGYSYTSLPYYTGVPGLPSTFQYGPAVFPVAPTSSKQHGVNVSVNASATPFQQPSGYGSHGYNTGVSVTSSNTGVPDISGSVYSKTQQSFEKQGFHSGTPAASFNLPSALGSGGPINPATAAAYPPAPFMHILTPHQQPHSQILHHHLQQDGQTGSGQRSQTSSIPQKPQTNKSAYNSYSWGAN
The method, then:
as §1, §2

The target of test [3] is T3, SERBP1 (human, UniProt Q8NC51 2-408).
T3 construct: also called NP_001018077.1 (+1)
T3 sequence (looked up): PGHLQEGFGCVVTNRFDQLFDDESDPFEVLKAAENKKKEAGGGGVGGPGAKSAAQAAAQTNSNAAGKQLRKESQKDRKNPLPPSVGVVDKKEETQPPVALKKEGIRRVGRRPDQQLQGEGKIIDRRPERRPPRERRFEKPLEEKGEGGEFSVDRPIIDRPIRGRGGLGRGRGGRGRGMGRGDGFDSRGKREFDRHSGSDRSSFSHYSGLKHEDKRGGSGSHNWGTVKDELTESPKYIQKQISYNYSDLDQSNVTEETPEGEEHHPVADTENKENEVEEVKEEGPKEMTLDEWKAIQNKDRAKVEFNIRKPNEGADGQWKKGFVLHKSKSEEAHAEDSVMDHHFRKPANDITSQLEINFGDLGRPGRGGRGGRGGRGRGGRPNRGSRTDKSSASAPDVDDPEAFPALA
Here is the method: as §1, §2

The target of test [4] is ARPC4 (human, UniProt P59998 2-187). Here is the method: as §1, §2

T1 sequence (Q99700 whole entry): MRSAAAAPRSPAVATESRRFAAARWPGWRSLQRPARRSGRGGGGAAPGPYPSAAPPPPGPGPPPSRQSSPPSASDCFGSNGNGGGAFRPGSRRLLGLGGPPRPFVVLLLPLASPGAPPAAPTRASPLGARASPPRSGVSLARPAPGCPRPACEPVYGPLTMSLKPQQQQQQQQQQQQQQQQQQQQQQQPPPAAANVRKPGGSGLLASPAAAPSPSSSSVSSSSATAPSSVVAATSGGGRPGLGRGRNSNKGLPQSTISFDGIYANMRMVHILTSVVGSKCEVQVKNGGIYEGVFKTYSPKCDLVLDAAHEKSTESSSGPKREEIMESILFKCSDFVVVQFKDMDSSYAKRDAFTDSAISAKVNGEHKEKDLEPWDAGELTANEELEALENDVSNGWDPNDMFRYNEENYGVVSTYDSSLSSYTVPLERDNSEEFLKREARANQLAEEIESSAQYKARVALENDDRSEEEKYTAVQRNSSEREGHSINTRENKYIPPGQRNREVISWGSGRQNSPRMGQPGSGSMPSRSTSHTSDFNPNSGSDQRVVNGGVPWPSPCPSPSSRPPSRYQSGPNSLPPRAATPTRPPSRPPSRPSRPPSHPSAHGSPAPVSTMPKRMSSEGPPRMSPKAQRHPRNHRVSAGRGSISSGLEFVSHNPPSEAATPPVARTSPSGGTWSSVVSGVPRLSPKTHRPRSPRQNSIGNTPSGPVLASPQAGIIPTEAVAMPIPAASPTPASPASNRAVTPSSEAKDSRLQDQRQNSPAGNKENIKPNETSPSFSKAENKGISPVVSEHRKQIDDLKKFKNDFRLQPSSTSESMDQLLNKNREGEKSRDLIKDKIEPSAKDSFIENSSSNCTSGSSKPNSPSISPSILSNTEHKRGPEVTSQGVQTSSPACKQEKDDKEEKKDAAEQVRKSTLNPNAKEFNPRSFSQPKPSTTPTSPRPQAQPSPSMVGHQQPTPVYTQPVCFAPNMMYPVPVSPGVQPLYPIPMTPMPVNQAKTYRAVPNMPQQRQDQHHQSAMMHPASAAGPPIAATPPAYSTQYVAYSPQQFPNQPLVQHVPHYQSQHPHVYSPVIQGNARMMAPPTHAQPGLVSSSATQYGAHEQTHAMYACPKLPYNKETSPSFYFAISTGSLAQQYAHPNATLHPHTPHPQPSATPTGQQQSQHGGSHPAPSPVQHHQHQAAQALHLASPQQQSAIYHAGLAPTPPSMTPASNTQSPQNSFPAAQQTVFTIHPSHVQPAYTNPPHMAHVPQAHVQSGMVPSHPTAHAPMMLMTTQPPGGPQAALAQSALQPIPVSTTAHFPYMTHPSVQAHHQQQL

B1: N-terminal FLAG tagged B3GNT2 (enzyme, human, UniProt Q9NY97 1-397, looked up)
chain: MSVGRRRIKLLGILMMANVFIYFIMEVSKSSSQEKNGKGEVIIPKEKFWKISTPPEAYWNREQEKLNRQYNPILSMLTNQTGEAGRLSNISHLNYCEPDLRVTSVVTGFNNLPDRFKDFLLYLRCRNYSLLIDQPDKCAKKPFLLLAIKSLTPHFARRQAIRESWGQESNAGNQTVVRVFLLGQTPPEDNHPDLSDMLKFESEKHQDILMWNYRDTFFNLSLKEVLFLRWVSTSCPDTEFVFKGDDDVFVNTHHILNYLNSLSKTKAKDLFIGDVIHNAGPHRDKKLKYYIPEVVYSGLYPPYAGGGGFLYSGHLALRLYHITDQVHLYPIDDVYTGMCLQKLGLVPEKHKGFRTFDIEEKNKNNICSYVDLMLVHSRKPQEMIDIWSQLQSAHLKC
notes: Overexpressed in cells and pulled down from the lysate with mouse anti-FLAG antibody; also called N-FLAG B3GNT2; N-term FLAG; not shown: N-terminal FLAG tag
Regarding B1, the “co-IP mass spectrometry count” value worked out at 4 in test [1], 20 in test [2], 0 in test [3] and 0 in test [4].
